Source: patent US11549124B2 (priority 2017, dated 2023)

B1: HvNEP-1 (protein)
chain: MAMAIMNTLQCILFLMALIMTHQIPRATADADTPKVAMASSGAGSSFRLAAHHDHALSRSDDGFLHVQSRLDNLLPSEANVTTLRPPVASPLDMAFSVVVGLGSGKGRHDYNLKLDASGSLTWVQCKPCNPKQPQRGPLFDPKASSTFQQVAGTSQICHPPYPMEPAGQQCAFHLSGMGGMSVHGYVAMENLTMGPEAMKEFVFGCSHSTGHFNSHGTFAGVAAMGKMPTSLVMQVAARGQTRFSYCLFSGGASRHGFLRFGADVPSRSGLRTTKILPALDAHESQYYVSLVGISLDAKRLTGVRPEMFARQRGGEGGCVVDPGTPLTVLVREAYRVVEDAVWSDLRRNKAERVQREGYGLCVRKTAEIKRHLQSLSLHFAEETARLVVKPEQLFVAVESRLHGAALCLAMRPGERTVIGALQQVDTRFVYDLKDAKLSFASEPCSQDTAGVD
modifications: Hordeum vulgare

Key:
[1] = system: wheat TaPAPhy phytase (EC 3.1.3.26); assay: Residual phytase activity after treatment with protease at different phytase:protease ratios; settings: phytase: protease ratio of 1:20
Text: Values are mean of 3 independent technical replicates, and error bars represent means+±sd of replicates.

F. graminearum JCM9873 = type: cell-based
[2] = system: TRI4, TRI5, TRI6 genes of F. graminearum JCM9873; type: cell-based
[3] = system: phytases in crude extract from F. culmorum 8984; type: biochemical
[4] = system: phytases in crude extract from F. graminearum 7775; type: biochemical
[5] = target: Aspergillus ficuum phytase (Aspergillus niger, UniProt P34752)
Chain of Aspergillus ficuum phytase (P34752 24-467): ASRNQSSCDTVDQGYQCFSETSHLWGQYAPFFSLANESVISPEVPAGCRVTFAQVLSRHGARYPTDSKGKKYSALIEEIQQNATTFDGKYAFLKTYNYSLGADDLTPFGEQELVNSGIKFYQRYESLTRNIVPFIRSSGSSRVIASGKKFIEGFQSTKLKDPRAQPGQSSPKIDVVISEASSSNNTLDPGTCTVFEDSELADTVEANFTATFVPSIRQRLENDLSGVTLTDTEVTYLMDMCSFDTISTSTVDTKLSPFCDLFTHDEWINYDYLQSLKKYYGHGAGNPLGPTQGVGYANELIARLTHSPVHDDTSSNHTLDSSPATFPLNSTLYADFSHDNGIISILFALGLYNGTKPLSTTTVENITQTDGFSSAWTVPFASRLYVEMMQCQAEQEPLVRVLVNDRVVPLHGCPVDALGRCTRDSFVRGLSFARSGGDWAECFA

Row | Molecule | phytase activity after exposure to protease [1] | 15-ADON production by F. graminearum (F. graminearum JCM9873) | growth (biomass accumulation) of fungal culture (F. graminearum JCM9873) | toxin production of fungal culture (F. graminearum JCM9873) | expression of TRI4 gene [2] | expression of TRI5 gene [2] | expression of TRI6 gene [2] | inhibition of phytases in crude extract [3] | inhibition of phytases in crude extract [4] | pH of peak activity for inhibiting A. ficuum phytase ([5]; 5 μg HvNEP-1, 2.5 U/ml phytase, 2 mM sodium phytate, 1 h, 37° C., pH 2.0 to 8.0) | temperature of peak activity for inhibiting A. ficuum phytase ([5]; 100 mM acetate buffer pH 5.0, 1 h) [°C]
1 | pepsin | unaffected |  |  |  |  |  |  |  |  |  | 
2 | B1 |  | not detectable | strongly inhibited | strongly inhibited | suppressed | suppressed | suppressed | strongly inhibited | strongly inhibited | 5.0 | 40
